Assay results published in patent US20260200982A1, “HER RECEPTOR DERIVED PEPTIDES AND METHODS OF USE THEREOF” (Ramot at Tel-Aviv University Ltd., priority 2022, published 2026).
The star is where a group is joined. Myristoyl = CCCCCCCCCCCCCC(=O)*

Target: nucleolin (Homo sapiens, UniProt P19338)
Assay: Western blot analysis of dissected Panc-1 tumors, nucleolin
Type: in vivo
Parameters: endogenous in cells; host or cells: Panc-1
Conditions: Panc-1 tumor lysates; FIGS. 10A-C
Experimental: Pancreatic Tumor Growth in Nude Mice—The study was conducted according to the NIH Guidelines for Use and Care of Laboratory Animals and following the approval by Animal Care Committee of the Tel Aviv University. Nude CD1-Nu mice (25-30 g) housed in barrier facilities on a 12-h light/dark cycle one week prior to the injection of tumor cells (day zero). On day zero, 2×10^6 Panc 1 cells in 0.1 ml of PBS were implanted subcutaneously just above the right femoral joint. Tumor size was measured every 3-4 days. When the tumors were apparently seen and the calculated tumor size was 40 mm^3, the animals were divided randomly into two groups of mice (control vehicle treated and myr-NLS (SEQ ID NO: 5) treated; 8 mice per group). Treatment with the myr-NLS (SEQ ID NO: 5) was performed by intraperitoneal injection of 25 μg in 100 μl PBS (or 100 μl PBS for control mice) every day. Tumors size was measured 3 times a week. At the end of the experiment, the mice were sacrificed, and the tumors were dissected and used for further analysis.
Western blot analysis—Half of each tumor was homogenized in lysis buffer, using a Potter-Elvehjem manual homogenizer, cleared and kept at −70° C. […] Immunoreactive bands were detected with the enhanced chemiluminescence reagent (Luminata Crescendo Western HRP). Densitometric quantification analysis of the resulted images was done using ImageJ program. […]

Sequence of nucleolin (P19338 whole entry): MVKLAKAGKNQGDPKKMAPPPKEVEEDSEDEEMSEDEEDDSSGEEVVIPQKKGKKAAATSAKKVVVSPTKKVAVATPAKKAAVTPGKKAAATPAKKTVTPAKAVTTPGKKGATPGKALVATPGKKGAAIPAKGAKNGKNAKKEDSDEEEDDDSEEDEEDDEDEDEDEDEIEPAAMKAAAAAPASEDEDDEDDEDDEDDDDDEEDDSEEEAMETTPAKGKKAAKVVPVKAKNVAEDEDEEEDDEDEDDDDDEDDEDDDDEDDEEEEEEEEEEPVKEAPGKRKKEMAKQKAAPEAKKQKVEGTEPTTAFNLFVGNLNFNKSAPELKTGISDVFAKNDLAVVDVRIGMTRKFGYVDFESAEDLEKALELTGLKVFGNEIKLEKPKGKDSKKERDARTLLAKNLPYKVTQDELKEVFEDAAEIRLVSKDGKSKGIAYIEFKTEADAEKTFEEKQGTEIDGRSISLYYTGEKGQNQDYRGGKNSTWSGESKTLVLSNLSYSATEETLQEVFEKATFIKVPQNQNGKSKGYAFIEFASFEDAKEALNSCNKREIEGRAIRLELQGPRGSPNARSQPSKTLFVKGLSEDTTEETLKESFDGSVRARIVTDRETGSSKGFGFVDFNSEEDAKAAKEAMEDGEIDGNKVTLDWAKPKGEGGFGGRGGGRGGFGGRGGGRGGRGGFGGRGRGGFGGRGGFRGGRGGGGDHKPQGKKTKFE

Which “nucleolin levels in tumors” value does the source give for “Myr-RRRHIVRKRTLRRLL-OH (Myristoyl-RRRHIVRKRTLRRLL-OH; SMILES CCCCCCCCCCCCCC(=O)N[C@@H](CCCNC(=N)N)C(=O)N[C@@H](CCCNC(=N)N)C(=O)N[C@@H](CCCNC(=N)N)C(=O)N[C@@H](Cc1c[nH]cn1)C(=O)N[C@H](C(=O)N[C@H](C(=O)N[C@@H](CCCNC(=N)N)C(=O)N[C@@H](CCCCN)C(=O)N[C@@H](CCCNC(=N)N)C(=O)N[C@H](C(=O)N[C@@H](CC(C)C)C(=O)N[C@@H](CCCNC(=N)N)C(=O)N[C@@H](CCCNC(=N)N)C(=O)N[C@@H](CC(C)C)C(=O)N[C@@H](CC(C)C)C(=O)O)[C@@H](C)O)C(C)C)[C@@H](C)CC) [myr-NLS]” here?
The value was “significant reduction”.
